Substrate in series [1]: CCCCC/C=C\C/C=C\C/C=C\C=C\[C@@H](O)CCCC(=O)O
The series can be described thus: cells, lysate or membranes. Particulars: microsomes of overexpressing HEK293T DHRS7-KO cells, NADP+ in excess, pH 7.5, 37 °C, apparent (pseudo-first order), eGFP fusion.

Substrate in series [2]: NC(=O)c1ccc[n+]([C@@H]2O[C@H](COP(=O)(O)OP(=O)(O)OC[C@H]3O[C@@H](n4cnc5c(N)ncnc54)[C@H](OP(=O)(O)O)[C@@H]3O)[C@@H](O)[C@H]2O)c1
The series can be described thus: NADPH fluorescence, plate reader, Michaelis-Menten fit of initial velocities. In kind it is cell-based, Danio rerio. Particulars: microsomes of overexpressing HEK293T DHRS7-KO cells, 5(S)-HETE in excess, pH 7.5, 37 °C, apparent (pseudo-first order), eGFP fusion, varied: cofactor.

Substrate in series [3]: NC(=O)c1ccc[n+]([C@@H]2O[C@H](COP(=O)(O)OP(=O)(O)OC[C@H]3O[C@@H](n4cnc5c(N)ncnc54)[C@H](OP(=O)(O)O)[C@@H]3O)[C@@H](O)[C@H]2O)c1
The description is as above. The class given is cell-based, Homo sapiens. To be noted: microsomes of overexpressing HEK293T DHRS7-KO cells, 5(S)-HETE in excess, pH 7.5, 37 °C, apparent (pseudo-first order), eGFP fusion, varied: cofactor.

B1: dr Dhrs7 (Danio rerio) (protein)
chain: MDICWLCVGLAGTAVYLLVQFIRFIFADADLTLLWAARFGKTPESTFRGKVVWITGASSGIGEELSLQLAAIGARLVLSARRENELERVKRLCLERSSLKAEDILVLPLDLMDRASHPEKTTAALEHFGEIDVLINNGGRSQRALCVDADVDVYQALMELNYLGTVSITKQVLPHMIQRGTGIIATVSSVAGFVGVPLATGYAASKHALQGFFNSLRTELSDCPNILISNICPGPVISSIVQNAFTEELGKPVATAGDQTHKMSTERCVHLTLVGLANRVKEMWIAEQPFLLFCYVWQYTPTLAWYLTNVLGKKRVQNFKAGVDADAAYFSKPKAKTS
notes: Dhrs7-eGFP fusion (pSBtet-eGFP vector, doxycycline-induced) in microsomes of human HEK293T DHRS7-knockout cells
Take B1: the Km in series [1] is 1.4 (95% CI: [1.1, 1.7]) μM; in series [2] it was 0.63 (95% CI: [0.24, 1.03]) μM.

B2: hs DHRS7 (Homo sapiens) (protein)
chain: MNWELLLWLLVLCALLLLLVQLLRFLRADGDLTLLWAEWQGRRPEWELTDMVVWVTGASSGIGEELAYQLSKLGVSLVLSARRVHELERVKRRCLENGNLKEKDILVLPLDLTDTGSHEAATKAVLQEFGRIDILVNNGGMSQRSLCMDTSLDVYRKLIELNYLGTVSLTKCVLPHMIERKQGKIVTVNSILGIISVPLSIGYCASKHALRGFFNGLRTELATYPGIIVSNICPGPVQSNIVENSLAGEVTKTIGNNGDQSHKMTTSRCVRLMLISMANDLKEVWISEQPFLLVTYLWQYMPTWAWWITNKMGKKRIENFKSGVDADSSYFKIFKTKHD
notes: DHRS7-eGFP fusion (pSBtet-eGFP vector, doxycycline-induced) in microsomes of HEK293T DHRS7-knockout cells
As for B2, the Km was 0.62 (95% CI: [0.39, 0.97]) μM in series [3] and 0.78 (95% CI: [0.43, 1.13]) μM in series [1].
